In patent publication US20240158448A1, “MULTIVALENT NANO-'SELF' PEPTIDES AND USES THEREOF” (THE TRUSTEES OF THE UNIVERSITY OF PENNSYLVANIA, priority 2021, published 2024):
“Also recorded” adds a separate entry of the source. Non-standard residues stand in square brackets, D forms with d. Primed or numbered codes have the meaning given here. No end group written: not given here. PEG5′ = linker of 5 PEG units between residues

How the values were obtained:
[1] = Pre-clinical safety: intravenous nS-FF injections in mice; type: in vivo, mouse
Description: FIGS. 23A-23D illustrate that pre-clinical assessments indicate nS-FF is safe in vivo Phase 1 pre-clinical trial: Intravenous injections of nS-FF were done for four consecutive days followed by blood withdrawal 24 hours after last injection.
Phase 1 clinical trials for safety of anti-CD47 in patients have shown that infusion into the bloodstream decreases RBC numbers (i.e. hematocrit) and increases reticulocytes (i.e. new RBCs), and related blood safety concerns apply to a bivalent CD47-binding protein made with SIRPα domains fused to a macrophage-binding domain (Fc domain). […] This corresponds to about 8 μM in the blood, assuming rapid mixing and no dilution within the ˜1.5 mL blood volume of the mouse. Withdrawal of ˜140 μL from this blood volume was necessary to obtain a complete hematology profile, and such a volume is expected to cause slight decreases in hematocrit and platelets as shown (FIGS. 23A-23B). Consistent with this loss, more RBCs should be produced in each mouse to compensate for the RBC loss, and the ˜30% increase in reticulocytes after the first two blood draws over 11 days (FIG. 23C) is similar to the prior amount of blood removed (˜300 μl/1500 μl). The mice (˜14 weeks) also continued to gain weight at the same rates (˜5% over 11 days) regardless of peptide injections. These changes are thus expected but, importantly, unaffected by the nSFF peptide, which establishes some safety.

THP-1 macrophages = test: Phosphotyrosine (pTyr) staining of THP-1 macrophages; type: cell-based, human; conditions: 20 nM peptide
Description: Phosphotyrosine (pTyr) staining. THP-1 monocytes were PMA differentiated for 48 hours. Macrophages were washed with RPMI three times then incubated with 50 μM and 20 nM of either nS-F or nS-FF for 1 hour at 37° C., 5% CO2 and 95% humidity. The same conditions were replicated with the addition of 5 μg/mL anti-CD47. Excess peptide was washed with PBS then macrophages were fixed. […] After washing with PBS, the macrophages were incubated with 1:100 mouse anti-pTyr (Santa Cruz Biotechnology) for 1 hour at room temperature with shaking. Macrophages were washed with PBS then stained with AlexaFluor 488 donkey anti-mouse (1:1000; Invitrogen) and 1 μg/mL Hoechst 33342 for 1 hour with shaking then washed again. Fluorescence imaging and quantification was performed as described elsewhere herein.

soluble human SIRPα = target: T1, soluble human SIRPα (Homo sapiens, UniProt P78324); test: Binding of biotinylated peptides on streptavidin beads to soluble SIRPα
T1 construct: Soluble human SIRPα fused with glutathione s-transferase (SIRPα-GST); GST (glutathione S-transferase); made in house
T1 sequence (P78324 31-373 limits assumed): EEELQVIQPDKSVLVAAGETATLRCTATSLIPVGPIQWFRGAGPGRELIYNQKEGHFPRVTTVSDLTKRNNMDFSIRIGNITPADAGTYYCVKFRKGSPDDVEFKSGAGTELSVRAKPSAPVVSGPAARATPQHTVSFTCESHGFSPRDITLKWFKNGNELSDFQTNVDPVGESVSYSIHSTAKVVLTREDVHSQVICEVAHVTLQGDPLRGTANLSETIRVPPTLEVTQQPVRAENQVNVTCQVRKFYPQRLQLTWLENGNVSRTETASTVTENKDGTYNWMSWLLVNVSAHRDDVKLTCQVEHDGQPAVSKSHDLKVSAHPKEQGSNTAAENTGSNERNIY
From the text: SIRPα Expression and Purification. Soluble human SIRPα fused with glutathione s-transferase (SIRPα-GST) was expressed and purified as previously published (Tsai, et al., 2008, J. Cell Biol. 180:989-1003).
Peptide biotinylation: NHS-biotin (Thermo Fischer) was mixed with nS-wt and nS-V, respectively, following the manufacturer's protocol. The biotinylated peptides were dialyzed against PBS.
Streptavidin-beads binding: Streptavidin-coated polystyrene beads of 2.1 μm radius (Spherotech) were washed and blocked 3x in PBS plus 0.4% BSA. nS-wt-biotin or nS-V-biotin were incubated with the beads for 1 hour at room temperature with shaking. Beads were washed with PBS, then incubated with recombinant SIRPα for 1 hour in ice. Streptavidin beads were labeled with rabbit anti-streptavidin-FITC (Invitrogen) and SIRPα was stained with mouse anti-SIRPα-allophycocyanin (anti-SIRPα-APC; Invitrogen).

[2] = system: mouse J774A.1 macrophages; test: In vitro phagocytosis assay: opsonized human RBCs engulfed by mouse J774A.1 macrophages; type: cell-based; conditions: saturating / 50 μM peptide
Description: In vitro phagocytosis assay. […] For CD47 blocked RBCs, 5 μg/mL of mouse anti-human CD47 (B6H12; BD Biosciences) were added. Thereafter, RBCs were washed with PBS three times and stained with PKH26 dye (1:800 dilution in PBS; Sigma) for 1 hour at RT with shaking in the dark. RBCs were washed and resuspended in PBS. J774A.1 macrophages were plated for 24 hours in RPMI. For SIRPα blocked J774A.1 macrophages, the same peptide blocking procedure as described elsewhere herein was used with the addition of a positive control using 5 μg/mL rat anti-mouse SIRPα ([…]; BD Biosciences). […] CO2 and 95% humidity. Macrophages were then washed with RPMI three times. Adherent and uninternalized RBCs were lysed with water for 30 seconds followed by immediate replacement with RPMI media. In order to distinguish remaining adherent RBCs from internalized RBCs, opsonized RBCs were stained with AlexaFluor 647 donkey anti-rabbit (binds to rabbit polyclonal opsonin on RBC; Invitrogen) IgG (1:1000) while unopsonized, CD47 blocked RBCs were stained with AlexaFluor 647 donkey anti-mouse (binds to mouse monoclonal anti-CD47 on RBCs; Invitrogen) IgG (1:1000) for 30 minutes. After washing, macrophages were fixed with 4% formaldehyde for 15 minutes at RT, washed with PBS, stained with 1 μg/mL Hoechst 33342, and then washed with PBS again. Fluorescence imaging was performed as described elsewhere herein and quantification was done using ImageJ. At least 200 cells were analyzed and experiments were repeated at least three times.

Row | Substance | increase in reticulocytes ([1]; after the first two blood draws over 11 days, unaffected by peptide) [%] | safety: mouse hematology and body weight ([1]; four daily tail-vein injections of 1 mg/kg, 1 mg/kg) | body weight gain ([1]; over 11 days, same rates regardless of peptide injections) [%] | effect on pTyr signal (THP-1 macrophages) | SIRPα binding to peptide-coated beads (soluble human SIRPα) | effect on phagocytosis of opsonized RBCs (words) [2]
1 | (VTELFREG-PEG5)2-K (VTELFREG[PEG5′]K[PEG5′]GERFLETV; not fully specified; also: bivalent lysine core) [nS-FF, bivalent nS-F linked through PEG5 linkers to a C-terminal Lys] | ~30 | safe, with no anemia or weight loss; also recorded: no differences versus PBS vehicle control | ~5 | suppressed pTyr at nanomolar concentrations; also recorded: suppressed passivating pTyr intensity; also recorded: suppressed pTyr signal; also recorded: efficiently suppresses phosphorylation | – | –
2 | VTELTREG [nS-wt, 8-amino acid wild type nano-Self peptide from the CD47 loop, C-terminal amide] | – | – | – | – | fluorescence is only observed in the presence of biotinylated peptide | matches anti-CD47 blockade effects
